Reference: patent US20090083877A1, “Transcription Factors, DNA and Methods for Introduction of Value-Added Seed Traits and Stress Tolerance” (priority 2002, published 2009)
Entries after “also recorded” stand apart in the source; their conditions may differ. Where two headings read alike, the source gives them in different places.

B1: DPBF4/EEL: Arabidopsis ABI5-like bZIP transcription factor, Enhanced Em Level, At2g41070 (protein, listed as Arabidopsis thaliana)
chain: MGSIRGNIEEPISQSLTRQNSLYSLKLHEVQTHLGSSGKPLGSMNLDELLKTVLPPAEEGLVRQGSLTLPRDLSKKTVDEVWRDIQQDKNGNGTSTTTTHKQPTLGEITLEDLLLRAGVVTETVVPQENVVNIASNGQWVEYHHQPQQQQGFMTYPVCEMQDMVMMGGLSDTPQAPGRKRVAGEIVEKTVERRQKRMIKNRESAARSRARKQAYTHELEIKVSRLEEENEKLRRLKEVEKILPSEPPPDPKWKLRRTNSASL
B2: RAV2: Arabidopsis ABI3-Like B3 domain transcription factor, At1g68840, SEQ ID NO 3 and 4 (protein, listed as Arabidopsis thaliana)
chain: MDSSCIDEISSSTSESFSATTAKKLSPPPAAALRLYRMGSGGSSVVLDPENGLETESRKLPSSKYKGVVPQPNGRWGAQIYEKHQRVWLGTFNEQEEAARSYDIAACRFRGRDAVVNFKNVLEDGDLAFLEAHSKAEIVDMLRKHTYADELEQNNKRQLFLSVDANGKRNGSSTTQNDKVLKTREVLFEKAVTPSDVGKLNRLVIPKQHAEKHFPLPSPSPAVTKGVLINFEDVNGKVWRFRYSYWNSSQSYVLTKGWSRFVKEKNLRAGDVVTFERSTGLERQLYIDWKVRSGPRENPVQVVVRLFGVDIFNVTTVKPNDVVAVCGGKRSRDVDDMFALRCSKKQAIINAL
B3: VP1: maize VIVIPAROUS-1 B3-domain transcription factor, SEQ ID NO 1 and 2, expressed from 35S promoter (protein)
chain: MEASSGSSPPHSQENPPEHGGDMGGAPAEEIGGEAADDFMFAEDTFPSLPDFPCLSSPSSSTFSSNSSSNSSSAYTNTAGRAGGEPSEPASAGEGFDALDDIDQLLDFASLSMPWDSEPFPGVSMMLENAMSAPPQPVGDGMSEEKAVPEGTTGGEEACMDASEGEELPRFFMEWLTSNRENISAEDLRGIRLRRSTIEAAAARLGGGRQGTMQLLKLILTWVQNHHLQRKRPRDVMEEEAGLHVQLPSPVANPPGYEFPAGGQDMAAGGGTSWMPHQQAFTPPAAYGGDAVYPSAAGQQYSFHQGPSTSSVVVNSQPFSPPPVGDMHGANMAWPQQYVPFPPPGASTGSYPMPQPFSPGFGGQYAGAGAGHLSVAPQRMAGVEASATKEARKKRMARQRRLSCLQQQRSQQLSLGQIQTSVHLQEPSPRSTHSGPVTPSAGGWGFWSPSSQQQVQNPLSKSNSSRAPPSSLEAAAAAPQTKPAPAGARQDDIHHRLAAASDKRQGAKADKNLRFLLQKVLKQSDVGSLGRIVLPKKEAEVHLPELKTRDGISIPMEDIGTSRVWNMRYRFWPNNKSRMYLLENTGEFVRSNELQEGDFIVIYSDVKSGKYLIRGVKVRPPPAQEQGSGSSGGGKHRPLCPAGPERAAAAGAPEDAVVDGVSGACKGRSPEGVRRVRQQGAGAMSQMAVSI
modifications: Zea mays
B4: AREB3: Arabidopsis ABI5-like bZIP transcription factor, At3g56850 (protein, listed as Arabidopsis thaliana)
chain: MDSQRGIVEQAKSQSLNRQSSLYSLTLDEVQNHLGSSGKALGSMNLDELLKSVCSVEANQPSSMAVNGGAAAQEGLSRQGSLTLPRDLSKKTVDEVWKDIQQNKNGGSAHERRDKQPTLGEMTLEDLLLKAGVVTETIPGSNHDGPVGGGSAGSGAGLGQNITQVGPWIQYHQLPSMPQPQAFMPYPVSDMQAMVSQSSLMGGLSDTQTPGRKRVASGEVVEKTVERRQKRMIKNRESAARSRARKQAYTHELEIKVSRLEEENERLRKQKEVEKILPSVPPPDPKRQLRRTSSAPF

Experiments:
[1] = test system: ABA-inducible wheat Em promoter; assay: Em-GUS reporter transactivation in transiently transformed maize mesophyll protoplasts; format: cell-based; settings: for Transactivation of Em-GUS expression by overexpressed effector: effector overexpressed alone
Method: Plant Materials. Maize mesophyll protoplasts were isolated from 20-hr illuminated leaves of 10 day old maize seedlings that had been kept in the dark at 25° C. The middle part of the second leaves (about 6 cm in length) was cut into 0.5 mm strips with a razor blade and digested in an enzyme solution containing 1% (w/v) cellulose RS, 0.1% (w/v) macerozyme R10 (Yakult Honsha, Nishinomiya, Japan), 0.6 M mannitol, 10 mM MES (pH 5.7), 1 mM CaCl2, 1 mM MgCl2, 10 mM β-mercaptoethanol, and 0.1% BSA (w/v) for 3 hr at room temperature. Protoplasts were released by shaking on a rotary shaker at 80 rpm for 10 min and were filtered through a 70 μm nylon filter. Protoplasts were collected by centrifugation at 100 g for 2 min, washed in cold 0.6 M mannitol solution, centrifuged, and resuspended at 2×10^6/mL in cold 0.6 M mannitol. Electroporation conditions were 400 V/cm, 200 μF, 10 msec, and two pulses with a Biorad GenePulser apparatus. Each sample contained 5×10^4 protoplasts and about 50 μg DNA in 0.3 mL of 0.6 M mannitol and 20 mM KCl.
(§1) Plasmid pBM207 contains the wheat (Triticum aestivum) Early Methionine-labeled (Em) promoter driving the expression of GUS, encoded by uida from Escherichia coli. Plasmid pDH359 contains ABI5 cDNA driven by Ubiquitin promoter. Plasmid pCR349.13S contains the 35S promoter driving the VP1 sense cDNA. Plasmid pDirect2.6 contains the Ubi promoter in a reverse orientation and was used as control construct to balance the total amount of input plasmid DNA between various treatments. Plasmid pAHC 18 contains the Ubi promoter driving firefly (Photinus pyralis) LUC cDNA and was included in transformations to provide an internal reference for non-ABA-inducible transient transcription in reporter enzyme assays. ABF1-ABF4, AREB3, and DPBF4 were amplified by PCR using gene-specific primers from an Arabidopsis cDNA library (Minet et al. Plant J. 2:417 (1992)) and were cloned into plasmid pDH349 (Gampala et al. J. Biol. Chem. 277: 1689 (2002)) containing the maize Ubiquitin promoter and nopaline synthase 3′ termination signals.
The values in FIG. 2 are the average (±S.E.M.) of four replicate transformations.
To test the involvement of ABI3-Like B3 domain transcription factors in ABA signaling, ABA-inducible reporter gene transactivation by the B3 domain-containing RAV2 was assayed in maize mesophyll protoplasts transiently co-transformed with a full length cDNA under transcriptional control of the Ubiquitin promoter. Activation of Em-GUS reporter gene expression by RAV2, relative to non-ABA inducible Ubi-LUC reference reporter as internal control, and functional interactions of RAV2 with VP1, ABI5, and the ABI5-Like ABF3 were compared in protoplasts treated with or without 100 uM ABA (see FIG. 3).

[2] = test system: ABA-inducible wheat Em promoter; assay: Em-GUS reporter transactivation in transiently transformed rice protoplasts; format: cell-based, Oryza sativa; settings: for Synergy with exogenous ABA on Em-GUS expression: 100 μM ABA, 16 h; for Transactivation of Em-GUS expression by overexpressed effector: effector overexpressed alone, average of four replicate transformations
Method: Embryonic rice (Oryza sativa) callus cultures (Radon 6 from the International Rice Research Institute, Los Bafios, Phillipines) were obtained. Embryonic rice callus cultures were grown as suspensions in liquid culture as well as on phytagel plates containing MS medium supplemented with 2.0 mg/L 2,4-D. Cultures were propagated and digested for making protoplasts as previously described except that 10 mM HEPES (Sigma, St. Louis, Mo., USA), pH 5.6, was substituted for phosphate in the Krens'F medium, and 2% (weight/volume; w/v) cellulase YC, 0.35% (w/v) macerozyme, and 0.1% (w/v) pectolyase Y23 were used for overnight digestion (Karlan Research Products, Santa Rosa, CA, USA). Protoplasts were transformed with various mixtures of DNA reporter and effector constructs using polyethylene glycol precipitation. Transformed protoplasts were incubated with or without 100 μM ABA for 16 h in the dark in Krens solution before quantifying β-glucuronidase (GUS) and luciferase (LUC) reporter enzyme activities as previously described. ABA was dissolved and stored in absolute ethanol at −20° C. as a 0.1 M stock solution. Prior to use, required dilutions of ABA were made in Krens solution, and control samples received the same volume of solvent as in ABA treatments.
as §1
Simultaneously, it has been shown that ABF2, ABF3 and ABF4 overexpression in transgenic Arabidopsis results in ABA hypersensitivity and other ABA-associated phenotypes such as altered ABA-inducible gene expression and glucose signaling, reduced transpiration, and enhanced drought tolerance. The functional roles of the ABI5-like family members ABF1-ABF4 in regulation of ABA-inducible gene expression in rice protoplasts were tested and the results are shown in FIG. 1. […] Protoplasts were transformed with Em-GUS and a “dummy” effector construct (pD2.6 containing only the Ubiquitin promoter used to drive effector expression) or co-transformed with a Ubi-ABF construct and treated with or without 100 μM ABA. The values shown in FIG. 1A are the average (±S.E.M.) of four replicate transformations.
Rice protoplasts were transformed with either Em-GUS alone or in pairwise combinations of Ubi-ABF3, Ubi-ABI5, or 35S-VP1. The values in FIG. 1B are the average (±S.E.M.) of four replicate transformations. ABF3 is a related member of the ABI5-family of bZIP transcription factors.

| Molecule | Synergy with co-transformed VP1 on Em-GUS expression [1] | Synergy with exogenous ABA on Em-GUS expression [1] | Transactivation of Em-GUS expression by overexpressed effector ([1]; maize mesophyll protoplasts) | Synergy with exogenous ABA on Em-GUS expression [2] | Transactivation of Em-GUS expression by overexpressed effector [2] | also measured |
| --- | --- | --- | --- | --- | --- | --- |
| ABI5: Arabidopsis basic leucine zipper (bZIP) domain transcription factor, At2g36270, SEQ ID NO 5 and 6 | can synergize with co-transformed VP1 | synergize with exogenous ABA | sufficient for transactivation of the Em promoter; also recorded: sufficient for specific Em-GUS transactivation; also recorded: sufficient to transactivate Em-GUS expression | acted in synergy with ABA | transactivated the Em promoter |  |
| B1 |  |  | sufficient to transactivate Em-GUS expression |  |  | Synergy with co-transformed VP1 on Em-GUS expression ([1]; maize mesophyll protoplasts, co-transformed with VP1): some antagonism of ABA inducible Em-GUS expression and not; Synergy with exogenous ABA on Em-GUS expression ([1]; maize mesophyll protoplasts, exogenous ABA): synergize with exogenous ABA |
| B2 |  |  | sufficient for specific Em-GUS transactivation |  |  | Effect of ABA on synergism with VP1 [1]: enhanced by ABA; Synergy with ABF3 on Em-GUS expression [1]: synergizes; also recorded: interacts synergistically; Synergy with ABI5 on Em-GUS expression [1]: synergizes; also recorded: interacts synergistically; Synergy with VP1 on Em-GUS expression [1]: act synergistically to activate Em-GUS expression; also recorded: interacts synergistically; Effect of co-transformed ABA-INSENSITIVE-1 dominant negative allele on transactivation ([1]; maize mesophyll protoplasts, data not shown): antagonized |
| B3 |  |  |  | acted in synergy with ABA | transactivated the Em promoter |  |
| B4 | no functional interactions with VP1 and not | synergize with exogenous ABA | sufficient to transactivate Em-GUS expression |  |  |  |
